Test results from PMC4433160.

Key:
[1] = target: T1, human beta defensin 2 (HBD2) (human, UniProt O15263 24-64); test: microscopy of complex
T1 chain: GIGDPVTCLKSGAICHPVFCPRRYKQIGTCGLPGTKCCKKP

[2] = target: T2, human beta defensin 3 (HBD3) (human, UniProt P81534 23-67); test: aggregate formation
T2 chain: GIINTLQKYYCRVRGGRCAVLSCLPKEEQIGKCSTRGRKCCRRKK

## GGTGCATCGATGCAGGGGGG (ssDNA, phosphorothioate at some nucleotides (underlining lost in text)) [FITC-CpG ODN D35]
[1]
  binding result: binds

## ATCGACTCTCGAGCGTTCTC (ssDNA, phosphorothioate (underlining lost in text)) [CpG ODN K3]
[2]
  binding result: binds
